Values belong to the molecule of their own block, whether it stands above or below them.
Key:
[1] = molecular target: c-Jun (recombinant: overexpressed in 293T cells or in vitro translated); test: cell-based or functional assay
[2] = molecular target: c-Jun/c-Fos AP-1 complex; test: cell-based or functional assay
[3] = molecular target: endogenous KRC of EL4 T cells (UniProt A2A884 1-2348, limits assumed); test: anti-c-Jun IP from PMA/ionomycin-stimulated EL4 cells, blot with anti-KRC antisera
Protocol: (§1) FIG. 21(A) 293T cells were transfected with c-Jun and myc-KRCtr. 48 hours later, lysates were immunoprecipitated with anti-Myc antibody. Immunoprecipitates were probed by western blotting with anti-c-Jun antibody. FIG. 21(B) (left panel) 293T cells were cotransfected with c-Jun and full length His-KRC. 48 hours later, lysates were immunoprecipitated with anti-His antibody (DE8 Omniprobe) and precipitates were probed by western blotting with anti-c-Jun antibody. (right panel) In vitro translated and S35-labelled c-Jun and His-KRCtr were mixed and immunoprecipitated with anti-His antibody. Recovered c-Jun protein was visualized by autoradiography. FIG. 21(C) Jurkat or EL4 T cells were stimulated with PMA plus ionomycin for 45 minutes. Lysates were immunoprecipitated with anti-c-Jun antibody, and immunoprecipitates were probed with specific anti-KRC rabbit antisera. FIG. 21(D) (upper panel) 293T cells were transfected with AP-1 Luciferase along with c-Jun, c-Fos, and KRC. 24 hours later, Luciferase activity was determined as above. […] 24 hours later, luciferase activity was determined as above. […]

[4] = molecular target: T1, endogenous KRC of Jurkat T cells (human, UniProt Q5T1R4 1-2406, limits assumed); test: anti-c-Jun IP from PMA/ionomycin-stimulated Jurkat cells, blot with anti-KRC antisera
T1 construct: Detected with anti-KRC rabbit antisera in anti-c-Jun immunoprecipitates
Protocol: as §1

T1 sequence (Q5T1R4 whole entry): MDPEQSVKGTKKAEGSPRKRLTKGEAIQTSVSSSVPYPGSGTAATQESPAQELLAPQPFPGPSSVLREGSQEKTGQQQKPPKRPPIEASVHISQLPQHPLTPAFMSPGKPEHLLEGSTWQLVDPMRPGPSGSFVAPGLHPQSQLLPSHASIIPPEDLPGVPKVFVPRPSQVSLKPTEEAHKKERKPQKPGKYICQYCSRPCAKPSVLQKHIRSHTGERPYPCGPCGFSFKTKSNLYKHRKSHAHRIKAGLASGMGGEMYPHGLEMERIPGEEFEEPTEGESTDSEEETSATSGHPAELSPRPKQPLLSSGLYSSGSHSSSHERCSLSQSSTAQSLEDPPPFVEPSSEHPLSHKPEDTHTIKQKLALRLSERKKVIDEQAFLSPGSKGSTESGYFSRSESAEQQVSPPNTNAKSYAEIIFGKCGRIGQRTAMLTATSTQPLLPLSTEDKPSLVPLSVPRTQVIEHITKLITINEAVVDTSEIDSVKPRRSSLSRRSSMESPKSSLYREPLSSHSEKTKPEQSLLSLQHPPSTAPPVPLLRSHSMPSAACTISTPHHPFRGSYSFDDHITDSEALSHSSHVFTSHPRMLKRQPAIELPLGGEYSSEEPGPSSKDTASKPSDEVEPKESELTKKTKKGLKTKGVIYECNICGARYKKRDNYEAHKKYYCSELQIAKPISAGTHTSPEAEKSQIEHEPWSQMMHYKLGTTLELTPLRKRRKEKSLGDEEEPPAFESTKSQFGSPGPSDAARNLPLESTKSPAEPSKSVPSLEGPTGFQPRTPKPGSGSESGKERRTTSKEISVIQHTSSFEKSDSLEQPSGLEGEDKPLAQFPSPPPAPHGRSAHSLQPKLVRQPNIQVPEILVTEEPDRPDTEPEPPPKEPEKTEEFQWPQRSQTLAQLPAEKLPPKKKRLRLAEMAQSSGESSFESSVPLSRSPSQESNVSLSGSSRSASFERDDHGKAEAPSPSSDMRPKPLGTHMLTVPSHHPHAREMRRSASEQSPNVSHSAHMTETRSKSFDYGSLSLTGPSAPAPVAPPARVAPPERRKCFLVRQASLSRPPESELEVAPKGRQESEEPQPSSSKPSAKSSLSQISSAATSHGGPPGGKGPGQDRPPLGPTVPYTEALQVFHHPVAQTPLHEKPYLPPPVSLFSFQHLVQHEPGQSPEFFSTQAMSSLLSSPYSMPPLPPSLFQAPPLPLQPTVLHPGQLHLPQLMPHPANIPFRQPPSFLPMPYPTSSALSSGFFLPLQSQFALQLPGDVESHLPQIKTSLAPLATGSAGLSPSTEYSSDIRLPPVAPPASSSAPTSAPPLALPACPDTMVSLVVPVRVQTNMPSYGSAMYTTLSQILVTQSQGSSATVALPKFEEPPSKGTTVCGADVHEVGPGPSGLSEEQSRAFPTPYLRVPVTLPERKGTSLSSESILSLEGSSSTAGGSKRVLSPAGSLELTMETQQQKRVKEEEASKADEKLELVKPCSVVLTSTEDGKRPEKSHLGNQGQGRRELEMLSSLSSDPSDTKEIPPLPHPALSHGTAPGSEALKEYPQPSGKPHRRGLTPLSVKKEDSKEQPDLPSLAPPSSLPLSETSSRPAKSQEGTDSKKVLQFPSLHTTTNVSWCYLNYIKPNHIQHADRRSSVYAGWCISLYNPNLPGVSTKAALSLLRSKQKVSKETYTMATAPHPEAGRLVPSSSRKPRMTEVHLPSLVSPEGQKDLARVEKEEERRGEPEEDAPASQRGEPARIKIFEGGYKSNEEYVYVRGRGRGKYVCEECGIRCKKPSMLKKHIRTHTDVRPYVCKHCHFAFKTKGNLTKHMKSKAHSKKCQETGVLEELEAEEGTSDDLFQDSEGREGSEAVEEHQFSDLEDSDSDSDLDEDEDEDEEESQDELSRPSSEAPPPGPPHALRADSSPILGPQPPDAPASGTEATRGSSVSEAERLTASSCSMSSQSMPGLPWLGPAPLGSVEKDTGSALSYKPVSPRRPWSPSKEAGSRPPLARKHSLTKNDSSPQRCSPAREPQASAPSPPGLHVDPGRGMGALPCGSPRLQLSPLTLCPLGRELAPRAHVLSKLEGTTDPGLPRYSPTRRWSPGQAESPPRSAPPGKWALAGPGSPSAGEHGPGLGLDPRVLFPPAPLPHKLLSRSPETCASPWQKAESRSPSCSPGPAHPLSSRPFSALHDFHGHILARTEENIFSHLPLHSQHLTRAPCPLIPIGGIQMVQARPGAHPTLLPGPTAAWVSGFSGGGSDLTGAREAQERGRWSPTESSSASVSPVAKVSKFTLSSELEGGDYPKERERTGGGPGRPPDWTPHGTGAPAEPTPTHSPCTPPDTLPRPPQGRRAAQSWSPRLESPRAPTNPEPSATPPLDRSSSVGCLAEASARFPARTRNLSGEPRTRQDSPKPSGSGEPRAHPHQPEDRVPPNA
Sequence of endogenous KRC of EL4 T cells (A2A884 whole entry): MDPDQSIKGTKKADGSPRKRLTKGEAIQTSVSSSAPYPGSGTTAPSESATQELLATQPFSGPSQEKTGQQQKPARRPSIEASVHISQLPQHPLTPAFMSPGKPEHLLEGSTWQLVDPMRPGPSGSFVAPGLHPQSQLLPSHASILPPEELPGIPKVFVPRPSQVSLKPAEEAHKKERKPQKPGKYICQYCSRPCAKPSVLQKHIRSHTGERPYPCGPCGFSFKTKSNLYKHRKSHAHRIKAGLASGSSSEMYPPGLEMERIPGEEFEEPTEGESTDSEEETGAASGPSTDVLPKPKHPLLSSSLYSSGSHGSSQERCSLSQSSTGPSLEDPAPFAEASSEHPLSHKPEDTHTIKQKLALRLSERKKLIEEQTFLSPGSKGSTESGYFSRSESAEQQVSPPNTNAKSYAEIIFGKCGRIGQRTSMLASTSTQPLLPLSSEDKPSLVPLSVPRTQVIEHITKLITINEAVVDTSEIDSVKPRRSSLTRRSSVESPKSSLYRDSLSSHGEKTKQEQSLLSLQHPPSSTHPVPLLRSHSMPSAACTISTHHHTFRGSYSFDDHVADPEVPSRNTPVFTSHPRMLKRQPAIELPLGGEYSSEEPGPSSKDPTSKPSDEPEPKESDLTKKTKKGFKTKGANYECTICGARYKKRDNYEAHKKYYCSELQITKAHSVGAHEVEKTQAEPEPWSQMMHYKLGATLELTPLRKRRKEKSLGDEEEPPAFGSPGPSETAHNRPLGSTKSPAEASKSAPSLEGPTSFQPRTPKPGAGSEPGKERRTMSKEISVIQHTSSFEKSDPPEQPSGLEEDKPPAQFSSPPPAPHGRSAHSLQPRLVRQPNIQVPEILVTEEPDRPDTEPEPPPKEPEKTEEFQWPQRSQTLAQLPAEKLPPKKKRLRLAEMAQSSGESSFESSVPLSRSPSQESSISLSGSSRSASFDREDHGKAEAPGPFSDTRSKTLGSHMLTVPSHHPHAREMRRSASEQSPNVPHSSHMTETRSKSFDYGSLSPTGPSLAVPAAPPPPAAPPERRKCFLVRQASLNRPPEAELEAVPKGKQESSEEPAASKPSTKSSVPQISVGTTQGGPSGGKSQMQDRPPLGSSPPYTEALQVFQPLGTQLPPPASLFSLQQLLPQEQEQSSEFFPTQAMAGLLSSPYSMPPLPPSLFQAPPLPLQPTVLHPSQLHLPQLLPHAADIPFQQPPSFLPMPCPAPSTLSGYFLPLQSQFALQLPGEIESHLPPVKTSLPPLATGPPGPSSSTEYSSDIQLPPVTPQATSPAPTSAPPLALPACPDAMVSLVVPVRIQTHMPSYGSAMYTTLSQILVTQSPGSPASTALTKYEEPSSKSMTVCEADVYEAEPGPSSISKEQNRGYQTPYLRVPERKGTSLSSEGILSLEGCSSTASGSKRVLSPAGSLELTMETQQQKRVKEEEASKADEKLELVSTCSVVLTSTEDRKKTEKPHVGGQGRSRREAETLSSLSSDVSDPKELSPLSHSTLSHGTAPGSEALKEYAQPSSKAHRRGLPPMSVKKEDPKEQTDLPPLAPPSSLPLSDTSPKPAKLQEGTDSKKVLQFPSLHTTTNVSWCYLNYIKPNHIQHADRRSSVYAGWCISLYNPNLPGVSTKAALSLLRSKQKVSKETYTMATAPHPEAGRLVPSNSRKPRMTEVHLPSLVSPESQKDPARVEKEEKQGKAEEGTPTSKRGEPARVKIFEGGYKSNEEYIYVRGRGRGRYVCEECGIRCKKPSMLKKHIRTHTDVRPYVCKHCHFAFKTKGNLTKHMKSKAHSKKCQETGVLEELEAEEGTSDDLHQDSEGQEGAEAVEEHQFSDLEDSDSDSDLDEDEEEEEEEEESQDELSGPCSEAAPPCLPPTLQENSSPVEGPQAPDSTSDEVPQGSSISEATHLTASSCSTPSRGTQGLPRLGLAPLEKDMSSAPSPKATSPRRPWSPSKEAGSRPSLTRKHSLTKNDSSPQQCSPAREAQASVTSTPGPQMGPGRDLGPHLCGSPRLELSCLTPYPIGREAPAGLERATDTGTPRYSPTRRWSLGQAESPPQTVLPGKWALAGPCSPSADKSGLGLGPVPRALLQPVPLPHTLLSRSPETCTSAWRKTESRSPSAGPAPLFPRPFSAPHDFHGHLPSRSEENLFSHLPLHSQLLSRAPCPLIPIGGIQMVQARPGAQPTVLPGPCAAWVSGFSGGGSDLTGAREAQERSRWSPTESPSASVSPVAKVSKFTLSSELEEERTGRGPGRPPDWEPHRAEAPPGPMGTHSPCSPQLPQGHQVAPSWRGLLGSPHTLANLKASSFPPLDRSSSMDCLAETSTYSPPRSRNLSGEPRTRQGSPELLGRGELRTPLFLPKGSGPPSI

- AP-1 luciferase reporter activity in 293T cells overexpressing c-Jun [1]: 5 fold
- AP-1 luciferase reporter activity in 293T cells overexpressing c-Jun plus c-Fos [2]: 5 fold
Molecule: KRC (full-length, overexpressed; tag or construct not further specified), Q5T1R4 1-2406

- binding result [3]: binds
B1: endogenous c-Jun of EL4 T cells (other, UniProt P05627 1-334, looked up)
chain: MTAKMETTFYDDALNASFLQSESGAYGYSNPKILKQSMTLNLADPVGSLKPHLRAKNSDLLTSPDVGLLKLASPELERLIIQSSNGHITTTPTPTQFLCPKNVTDEQEGFAEGFVRALAELHSQNTLPSVTSAAQPVSGAGMVAPAVASVAGAGGGGGYSASLHSEPPVYANLSNFNPGALSSGGGAPSYGAAGLAFPSQPQQQQQPPQPPHHLPQQIPVQHPRLQALKEEPQTVPEMPGETPPLSPIDMESQERIKAERKRMRNRIAASKCRKRKLERIARLEEKVKTLKAQNSELASTANMLREQVAQLKQKVMNHVNSGCQLMLTQQLQTF
notes: also called AP-1 complexes

- binding result [4]: binds
B2: endogenous c-Jun of Jurkat T cells (other, human, UniProt P05412 1-331, looked up)
chain: MTAKMETTFYDDALNASFLPSESGPYGYSNPKILKQSMTLNLADPVGSLKPHLRAKNSDLLTSPDVGLLKLASPELERLIIQSSNGHITTTPTPTQFLCPKNVTDEQEGFAEGFVRALAELHSQNTLPSVTSAAQPVNGAGMVAPAVASVAGGSGSGGFSASLHSEPPVYANLSNFNPGALSSGGGAPSYGAAGLAFPAQPQQQQQPPHHLPQQMPVQHPRLQALKEEPQTVPEMPGETPPLSPIDMESQERIKAERKRMRNRIAASKCRKRKLERIARLEEKVKTLKAQNSELASTANMLREQVAQLKQKVMNHVNSGCQLMLTQQLQTF
notes: also called AP-1 complexes

Reference: patent US20050026285A1 (Harvard, published 2005)
